Results as given in paper PMC8000974, “Tumor Activated Cell Penetrating Peptides to Selectively Deliver Immune Modulatory Drugs” (Pharmaceutics, 2021).

Tests used:
B16F10 melanoma cells = assay: Cell culture Cy5 imaging of peptide uptake; assay type: cell-based; settings: murine B16 cells, 1 μM peptide in 1% FBS, 2 h at room temperature then 2 h in media, fixed
Protocol: (§1) Murine B16F10 melanoma and LL2 Lewis lung carcinoma cell lines were purchased from ATCC. MC38 colon adenocarcinoma cell line was purchased from Kerafast (Boston, MA, USA). Cell lines were grown in Dulbecco’s modified eagle’s medium (DMEM) + 10% fetal bovine serum (FBS) media. All cell lines were maintained at low passage and routinely tested for mycoplasma. For Cy5 imaging, cells were resuspended and incubated with Cy5 labeled r9 or ACPP at 1 μM in 1% FBS. The cells were incubated for 2 h under rotation and covered to be protected from light at room temperature. Cells were then spun down (5 min at 2000 rpm) and resuspended in cell media for an additional 2 h. The cells were then fixed with 4% paraformaldehyde in phosphate buffered saline (PBS), washed twice with PBS and incubated with 4′,6-diamidino-2-phenylindole (DAPI) stain (1:500). Finally, the cells were washed with PBS and mounted on slides using Fluoromount mounting media (Sigma, St Louis, MI, USA). Cells were imaged using a Keyence microscope with a 100× oil objective and high-resolution settings.

[1] = test system: LL2 Lewis lung carcinoma cells; assay: Cell culture Cy5 imaging of peptide uptake; assay type: cell-based; settings: murine LL2 cells, 1 μM peptide in 1% FBS, 2 h at room temperature then 2 h in media, fixed
Protocol: as §1

[2] = test system: MC38 colon adenocarcinoma cells; assay: Cell culture Cy5 imaging of peptide uptake; assay type: cell-based; settings: murine MC38 cells, 1 μM peptide in 1% FBS, 2 h at room temperature then 2 h in media, fixed
Protocol: as §1

B16F10 melanoma tumors [3] = assay: In vivo murine therapy experiments; design: species or system mice; settings: for Tumor control (tumor volume) vs control untreated: day 5 and day 9, 10 tumors per group
Protocol: Female six-week-old C57Bl6 albino mice were injected with 50,000 B16F10 melanoma cells subcutaneously in both thighs using a 1:1 mixture of PBS:Matrigel. The tumors were palpable five days after implant at which point treatment was initiated. Due to the rapid growth of B16F10 tumor in mice, dosing began when tumors reached an average size of 30 ± 13 mm^3. Animals were divided into four treatment groups: control, intratumoral (i.t.) resiquimod (30 nmoles per tumor), i.t. ACPP-resiquimod (30 nmoles per tumor), or i.v. ACPP-resiquimod (60 nmoles per mouse). Mice were given free drug or ACPP conjugated on day 5 and day 9. Each treatment group had five mice with 10 tumors. Tumor volumes were measured bi-weekly and mice weighed weekly. Mice were sacrificed when the tumor size reached 1500 mm^3.

B16F10 melanoma tumors [4] = assay: Tissue drug concentration (LC-MS/MS) after i.v. ACPP-resiquimod; assay type: in vivo; settings: B16F10 tumor bearing C57Bl6 albino mice, 30 nmoles ACPP-resiquimod i.v., 6 h post injection, free resiquimod by LC-MS/MS
Protocol: Female six-week-old C57Bl6 albino mice were injected with 50,000 B16F10 melanoma cells subcutaneously into both thighs using a 1:1 PBS:Matrigel. Mice were i.v. injected with 30 nmoles of ACPP-resiquimod in 100 µL sterile water and 6 h post injection mice were sacrificed. Tumor and adjacent muscle tissue were excised, weighed, and flash frozen in liquid N2. A mixture of 44 mL H2O, 44 mL acetonitrile, and 2 mL glacial acetic acid was used as the diluent. Nine times w/v of diluent was added to the frozen tissue. Tissues were dissociated on ice with a Sonic dismemberator Model 500 (Fisher Scientific) tissue probe homogenizer using 5 s pulse of 20% amplitude four to five times. The samples were spun down to obtain clear supernatant. For muscle tissue, addition passage through a 0.22 µm Nylon filter (Costar Spin X; purchased from Sigma, St Louis, MI, USA) was used to obtain clear supernatant. A fixed volume of tissue supernatant from each sample was injected on the LC-MS/MS (Agilent 1100 LC with MSD Trap XCT, Santa Clara, CA, USA). Each sample was run in duplicate on the LC-MS/MS to determine reproducibility of integrated ion current for each sample. […] Concentration of unknown samples were then calculated (Graphpad PRISM).

`CCN1C(=CC=CC=CC2=[N+](CCCCCC(=O)NCCN3C(=O)CC(SC[C@@H](NC(=O)[C@@H](CCCNC(=N)N)NC(=O)[C@@H](CCCNC(=N)N)NC(=O)[C@@H](CCCNC(=N)N)NC(=O)[C@@H](CCCNC(=N)N)NC(=O)[C@@H](CCCNC(=N)N)NC(=O)[C@@H](CCCNC(=N)N)NC(=O)[C@@H](CCCNC(=N)N)NC(=O)[C@@H](CCCNC(=N)N)NC(=O)[C@H](N)CCCNC(=N)N)C(N)=O)C3=O)c3ccc(S(=O)(=O)[O-])cc3C2(C)C)C(C)(C)c2cc(S(=O)(=O)O)ccc21` (stereo partly shown) [Cy5 labeled r9] was tested, and the “Cell uptake (Cy5 fluorescence microscopy)” value (“Cell uptake” for short) (B16F10 melanoma cells) was “readily taken up”, the “Cell uptake” value [1] was “readily taken up” and the “Cell uptake” value [2] was “readily taken up”.

With `CCOCc1nc2c(N)nc3ccccc3c2n1CC(C)(C)O` [resiquimod, Resiquimod, reference compound] the “Tumor control (tumor volume) vs control untreated” value (B16F10 melanoma tumors [3]; i.t. 30 nmoles per tumor) was “improved tumor control” and the “Mouse survival, dose response” value (B16F10 melanoma tumors [3]; i.t. injection, 30 nmoles compared to 10 nmoles, Log-rank (Mantel–Cox) test) was “statistically improved survival”.

For “cyclo(RGD)fc-MC-HN-peg8-e9-oPLGC(Me)AG-r9-c-(MC-VC-PABC-resiquimod-CONH2 [ACPP-resiquimod]”, the “Resiquimod drug concentration in tumor tissue” value (B16F10 melanoma tumors [4]) was 1142.3 ± 111.7 nM, the “Resiquimod drug concentration in peri-tumoral muscle tissue” value (B16F10 melanoma tumors [4]; negative value from calibration background noise) was -5.8 ± 3.5 nM and the “Antitumor efficacy compared with free resiquimod” value (B16F10 melanoma tumors [3]; ACPP-resiquimod i.t. or i.v. vs i.t. free resiquimod, total drug per animal constant) was “as efficacious as free resiquimod”. For the same molecule, the “Tumor control (tumor volume) vs control untreated” value (B16F10 melanoma tumors [3]; i.t. 30 nmoles per tumor) was “improved tumor control” and the “Tumor control (tumor volume) vs control untreated” value (B16F10 melanoma tumors [3]; i.v. 60 nmoles per mouse) was “improved tumor control”.
